# Experimental data taken from patent US20230079757A1, “METHODS AND MATERIALS FOR TREATING CANCER” (Mayo Foundation for Medical Education and Research, priority 2020, published 2023).
# T1: STAT1 homodimer (human, UniProt P42224 2-750)
# T1 construct: It was inferred from co-IP after IFNγ treatment and was not purified; also called STAT1/STAT1 homodimer; STAT1-STAT1 complex
# T1 sequence (looked up): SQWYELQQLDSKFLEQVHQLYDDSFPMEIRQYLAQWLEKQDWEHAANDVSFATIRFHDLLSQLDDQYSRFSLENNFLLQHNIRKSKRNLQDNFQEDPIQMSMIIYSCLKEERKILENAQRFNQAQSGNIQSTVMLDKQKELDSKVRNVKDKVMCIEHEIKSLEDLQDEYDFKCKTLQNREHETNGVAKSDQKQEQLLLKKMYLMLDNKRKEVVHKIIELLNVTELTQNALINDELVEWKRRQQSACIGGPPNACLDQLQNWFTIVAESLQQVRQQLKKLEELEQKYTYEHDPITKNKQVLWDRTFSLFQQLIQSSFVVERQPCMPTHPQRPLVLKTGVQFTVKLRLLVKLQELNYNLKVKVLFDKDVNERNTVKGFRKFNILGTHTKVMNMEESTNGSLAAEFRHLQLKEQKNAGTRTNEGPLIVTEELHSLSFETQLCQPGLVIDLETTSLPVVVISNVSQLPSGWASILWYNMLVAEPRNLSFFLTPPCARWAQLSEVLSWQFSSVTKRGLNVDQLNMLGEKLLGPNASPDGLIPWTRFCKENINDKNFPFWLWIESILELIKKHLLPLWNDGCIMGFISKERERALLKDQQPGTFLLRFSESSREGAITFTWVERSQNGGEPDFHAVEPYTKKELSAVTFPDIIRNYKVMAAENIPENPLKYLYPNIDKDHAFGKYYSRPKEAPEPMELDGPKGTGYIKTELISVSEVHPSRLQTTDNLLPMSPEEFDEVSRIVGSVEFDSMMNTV
# B1: IRF9 (other, UniProt Q00978 1-393, looked up)
# chain: MASGRARCTRKLRNWVVEQVESGQFPGVCWDDTAKTMFRIPWKHAGKQDFREDQDAAFFKAWAIFKGKYKEGDTGGPAVWKTRLRCALNKSSEFKEVPERGRMDVAEPYKVYQLLPPGIVSGQPGTQKVPSKRQHSSVSSERKEEEDAMQNCTLSPSVLQDSLNNEEEGASGGAVHSDIGSSSSSSSPEPQEVTDTTEAPFQGDQRSLEFLLPPEPDYSLLLTFIYNGRVVGEAQVQSLDCRLVAEPSGSESSMEQVLFPKPGPLEPTQRLLSQLERGILVASNPRGLFVQRLCPIPISWNAPQAPPGPGPHLLPSNECVELFRTAYFCRDLVRYFQGLGPPPKFQVTLNFWEESHGSSHTPQNLITVKMEQAFARYLLEQTPEQQAAILSLV
# B2: FOXA1 (Forkhead box protein A1), wild type (other, human, UniProt P55317 1-472, looked up)
# chain: MLGTVKMEGHETSDWNSYYADTQEAYSSVPVSNMNSGLGSMNSMNTYMTMNTMTTSGNMTPASFNMSYANPGLGAGLSPGAVAGMPGGSAGAMNSMTAAGVTAMGTALSPSGMGAMGAQQAASMNGLGPYAAAMNPCMSPMAYAPSNLGRSRAGGGGDAKTFKRSYPHAKPPYSYISLITMAIQQAPSKMLTLSEIYQWIMDLFPYYRQNQQRWQNSIRHSLSFNDCFVKVARSPDKPGKGSYWTLHPDSGNMFENGCYLRRQKRFKCEKQPGAGGGGGSGSGGSGAKGGPESRKDPSGASNPSADSPLHRGVHGKTGQLEGAPAPGPAASPQTLDHSGATATGGASELKTPASSTAPPISSGPGALASVPASHPAHGLAPHESQLHLKGDPHYSFNHPFSINNLMSSSEQQHKLDFKAYEQALQYSPYGSTLPASLPLGSASVTTRSPIEPSALEPAYYQGVYSRPVLNTS
# notes: also called FOXA1-WT; WT FOXA1
# B3: STAT1 (other, human, UniProt P42224 2-750, looked up)
# chain: T1 sequence (looked up)
# notes: Cells were stimulated with IFN; also called endogenous STAT1
# Assays:
# STAT1/STAT2 heterodimer [1] = target: T2, STAT1/STAT2 heterodimer (human, UniProt P42224 2-750; P52630 1-851); experiment: co-IP in 293T cells treated with IFNα (FIG. 9D)
# T2 construct: It was inferred from co-IP after IFNα treatment and was not purified; also called STAT2/STAT1 heterodimer
# Experimental: (§1) For extraction of nuclear and cytoplasmic proteins from cells, NE-PER Nuclear and Cytoplasmic Extraction Kit (# 78835, Thermo Fisher Scientific) was used according to the manufacturer's instructions. IP buffer (50 mM Tris-HCl pH7.5, 150 mM NaCl, 1% NP40, 0.5% Sodium Deoxycholate) was used to extract whole cell lysate. P rotein A/G agarose (# 20421, Thermo Fisher Scientific) was used for immunoprecipitation of FOXA1 (# ab23738, Abcam) and Flag-tag (dilution 1:1000; # F1804, Sigma-Aldrich). Monoclonal anti-HA agarose (# A2095, Sigma-Aldrich) was used for HA-tag Co-IP. For glutathione-S-transferase (GST) pulldown assay, GST-tagged STAT2 fragment expressed at E. coli was purified by Glutathione Sepharose 4B beads (# 84-239, Genesee Scientific) and incubated with lysate from 293T cells expressing interested proteins, and GST pulldown assays were performed. For protein co-IP, samples eluted in IP butter were incubated with agarose beads and antibodies overnight at 4° C. and washed with 6 times with IP buffer in the following day. Samples were boiled for 10 minutes in 50 μl sample buffer (2% SDS, 10% glycerol, 10% β-mercaptoethanol, bromophenol blue and Tris-HCl, pH 6.8) and subjected to Western blotting.
# STAT2 [2] = target: T3, STAT2 (human, UniProt P52630 1-851); experiment: co-IP of endogenous proteins in LNCaP cells (FIG. 8A)
# T3 construct: also called endogenous STAT2
# Experimental: as §1
# STAT1 = target: B3; experiment: co-IP of endogenous proteins, nuclear fraction (FIG. 8A, 9A, 9B)
# Experimental: as §1
# STAT1/STAT2 heterodimer [3] = target: T2, STAT1/STAT2 heterodimer; experiment: co-IP of endogenous proteins after IFNα treatment (FIG. 8A, 9A, 9B)
# Experimental: as §1
# STAT1 homodimer = target: T1, STAT1 homodimer; experiment: co-IP of endogenous proteins after IFNγ treatment (FIG. 8A, 9A, 9B)
# Experimental: as §1
# STAT2 [4] = target: T3, STAT2; experiment: co-IP in 293T cells treated with IFNα (FIG. 9D)
# Experimental: as §1
# [5] = target: the molecule itself; experiment: co-IP in 293T cells treated with IFNγ (FIG. 9D)
# Experimental: as §1
# T2 sequence (P52630 whole entry, one chain of several): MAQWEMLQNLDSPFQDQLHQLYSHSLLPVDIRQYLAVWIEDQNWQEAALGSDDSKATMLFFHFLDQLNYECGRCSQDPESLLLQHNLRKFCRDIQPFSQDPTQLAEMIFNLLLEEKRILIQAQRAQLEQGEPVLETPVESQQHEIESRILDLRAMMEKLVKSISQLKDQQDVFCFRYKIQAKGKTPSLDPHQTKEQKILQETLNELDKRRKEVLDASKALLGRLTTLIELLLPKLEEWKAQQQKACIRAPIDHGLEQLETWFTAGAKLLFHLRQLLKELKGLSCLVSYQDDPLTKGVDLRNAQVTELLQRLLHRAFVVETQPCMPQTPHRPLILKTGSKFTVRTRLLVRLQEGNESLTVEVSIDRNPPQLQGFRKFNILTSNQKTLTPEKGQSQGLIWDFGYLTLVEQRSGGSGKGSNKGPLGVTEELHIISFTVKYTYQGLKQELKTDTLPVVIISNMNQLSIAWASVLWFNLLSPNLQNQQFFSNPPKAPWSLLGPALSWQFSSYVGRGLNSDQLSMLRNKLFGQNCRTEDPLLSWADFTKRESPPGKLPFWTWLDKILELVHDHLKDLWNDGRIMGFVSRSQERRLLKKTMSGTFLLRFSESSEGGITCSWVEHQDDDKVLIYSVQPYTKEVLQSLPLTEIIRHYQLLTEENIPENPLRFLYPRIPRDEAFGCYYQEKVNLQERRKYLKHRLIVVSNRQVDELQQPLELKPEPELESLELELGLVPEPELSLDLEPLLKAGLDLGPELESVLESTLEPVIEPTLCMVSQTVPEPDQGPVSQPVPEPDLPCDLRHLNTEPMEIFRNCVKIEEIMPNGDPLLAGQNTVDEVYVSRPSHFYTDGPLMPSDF
# T3 sequence (P52630 whole entry): as the sequence (P52630 whole entry, one chain of several) above
binder,measurement,setting,value
B1,binding result,STAT1/STAT2 heterodimer [1],binds
B2,binding result,STAT2 [2],binds
same,binding result,STAT1,binds
same,binding result,STAT1/STAT2 heterodimer [3],binds
same,binding result,STAT1 homodimer,binds
B3,binding result,STAT2 [4],binds
same,binding result,[5],binds
